1 molecule from article PMC6599204, “DNA requirement in FANCD2 deubiquitination by USP1-UAF1-RAD51AP1 in the Fanconi anemia DNA damage response” (Nature Communications, 2019) can be followed below.

For this test, the target named is T1, FANCI (human, UniProt Q9NVI1 1-1328).
T1 construct: human FANCI
T1 sequence (looked up): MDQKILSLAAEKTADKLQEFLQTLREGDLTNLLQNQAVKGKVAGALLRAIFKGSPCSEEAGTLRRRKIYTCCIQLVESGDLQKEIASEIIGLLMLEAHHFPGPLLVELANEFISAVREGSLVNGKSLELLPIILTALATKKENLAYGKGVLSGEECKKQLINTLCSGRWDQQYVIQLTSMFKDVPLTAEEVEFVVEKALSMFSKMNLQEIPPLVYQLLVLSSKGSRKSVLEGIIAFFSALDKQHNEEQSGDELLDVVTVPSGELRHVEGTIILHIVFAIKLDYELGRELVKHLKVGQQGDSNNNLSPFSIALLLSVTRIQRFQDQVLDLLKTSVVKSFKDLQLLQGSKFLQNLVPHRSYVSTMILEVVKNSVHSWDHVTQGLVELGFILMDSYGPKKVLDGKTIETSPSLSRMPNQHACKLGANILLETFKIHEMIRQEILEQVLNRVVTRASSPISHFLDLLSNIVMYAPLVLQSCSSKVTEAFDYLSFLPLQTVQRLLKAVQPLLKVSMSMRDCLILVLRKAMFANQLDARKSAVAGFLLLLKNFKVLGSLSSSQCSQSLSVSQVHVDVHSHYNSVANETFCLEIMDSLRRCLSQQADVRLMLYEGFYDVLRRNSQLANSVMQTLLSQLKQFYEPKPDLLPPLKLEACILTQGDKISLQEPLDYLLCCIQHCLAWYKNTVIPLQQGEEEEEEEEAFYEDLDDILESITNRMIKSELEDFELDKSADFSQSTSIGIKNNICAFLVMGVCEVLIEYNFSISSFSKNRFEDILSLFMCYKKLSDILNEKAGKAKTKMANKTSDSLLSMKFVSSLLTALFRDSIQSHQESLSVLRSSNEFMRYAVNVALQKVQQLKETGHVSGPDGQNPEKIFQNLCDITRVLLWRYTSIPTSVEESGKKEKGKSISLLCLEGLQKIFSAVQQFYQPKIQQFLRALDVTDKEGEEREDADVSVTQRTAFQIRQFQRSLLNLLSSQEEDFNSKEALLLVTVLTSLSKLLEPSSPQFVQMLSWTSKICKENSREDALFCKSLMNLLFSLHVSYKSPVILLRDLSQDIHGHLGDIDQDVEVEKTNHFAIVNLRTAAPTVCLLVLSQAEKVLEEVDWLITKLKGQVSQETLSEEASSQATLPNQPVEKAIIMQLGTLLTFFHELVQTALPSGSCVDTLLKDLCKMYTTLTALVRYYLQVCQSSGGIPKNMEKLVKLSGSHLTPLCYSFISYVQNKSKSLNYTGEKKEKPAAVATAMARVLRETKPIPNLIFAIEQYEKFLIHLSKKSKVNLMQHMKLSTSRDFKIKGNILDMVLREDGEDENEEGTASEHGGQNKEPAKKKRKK
The experiment in a line: pull-down; same procedure as for RAD51AP1, but Strep-Tactin resin captured the complexes via the Strep tag on UAF1; USP1 or FANCI as the other protein; SDS-PAGE, Coomassie Blue. The settings on record: both partners purified.

B1: UAF1 (natural protein)
chain: not shown
notes: human UAF1 (isoform 1), full-length; also called UAF1 (WT); UAF1 (FL); not shown: Strep-II, C-terminal, kept
With B1, the binding result is given as “binds”.
